Laboratory results as given in patent publication US20030235860A1, “Interactions between AR, ER, TR2, and TR4” (priority 1999, published 2003).

Key:
Type in all cases: cell-based
TR4 = molecular target: T1, TR4 (Homo sapiens, UniProt P49116); assay: TR4-mediated transactivation reporter assay
T1 construct: full-length AR and TR4 in eukaryotic expression vectors (pSG5AR and pCMXTR4) were co-transfected; expressed in transfected cells; host or cells: H1299, HepG2
T1 sequence (P49116 1-615 isoform P49116-2 N175S/W419R/A428G/K503N/L504W/A613V): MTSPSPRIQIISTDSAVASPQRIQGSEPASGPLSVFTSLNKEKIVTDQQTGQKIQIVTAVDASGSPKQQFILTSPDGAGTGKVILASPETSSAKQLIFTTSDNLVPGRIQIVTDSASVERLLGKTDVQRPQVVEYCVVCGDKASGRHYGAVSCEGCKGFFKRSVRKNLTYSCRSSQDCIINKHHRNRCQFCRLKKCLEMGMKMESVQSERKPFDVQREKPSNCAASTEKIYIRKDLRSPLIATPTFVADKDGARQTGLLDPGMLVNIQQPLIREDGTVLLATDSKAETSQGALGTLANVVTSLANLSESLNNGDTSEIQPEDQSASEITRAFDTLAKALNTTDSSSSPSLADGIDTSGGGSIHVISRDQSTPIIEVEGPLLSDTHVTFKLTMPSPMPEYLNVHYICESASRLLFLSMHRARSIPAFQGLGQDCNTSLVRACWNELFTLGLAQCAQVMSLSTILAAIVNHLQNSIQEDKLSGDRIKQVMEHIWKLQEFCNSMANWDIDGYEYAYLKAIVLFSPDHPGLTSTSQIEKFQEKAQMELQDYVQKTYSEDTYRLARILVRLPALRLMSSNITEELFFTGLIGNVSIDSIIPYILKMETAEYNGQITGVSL
Experimental: Cells were routinely maintained in DMEM with 10% heat-inactivated fetal bovine serum. The cells were transfected using a modified calcium phosphate precipitation method, Mizokami, & Chang, J: Biol. Chem. 269,25655-25659 (1994), or SuperFect (Qiagen). To normalize the transfection efficiency, the (3-galactosidase expression ver and pRL-TK were co-transfected in CAT assay and in Dual-luciferase reporter assay system (Promega), respectively.
More specifically, 500 ng of reporter plasmids were co-transfected(DR4-CAT and CNTFR-15-LUC) with 200 ng of pCMX-TR4 and increasing amounts of pCMV-AR (200, 600, and 1,200 ng), pSG5GR (1,200 ng), or pSG5 PR (1,200 ng) using the SuperFect transfection kit (Qiagen) (PCMV AR Mowszowicz et al., (1993) Molecular Endocrinology 7:861:869). […] Similar results were obtained when the DR4-TK-CAT reporter was replaced with DR1-CNTFR-15-LUC, another TR4 response element (FIG. 3A). Young, et al., J: Biol. Chem. 272,3109-3116 (1997).
Another TR4 potential target gene, which is located in the hepatitis B virus (HBV) enhancer II region (−34 to −7) containing a classic DR1 motif. Breidbart, et al., Pediatric Res. 34,300-302 (1993), was investigated. The reporter plasmid CpFL(4)-LUC, which contains the HBV core promoter (Cp) sequence located between −34 and −7 (nucleotide coordinates 1751 and 1778 derived from the Genbank database) was shown above in FIG. 3B. The arrows indicate the DRI motif in HBV core promoter. HepG2 cells were co-transfected with 1.5 μg CpFL(4)-LUC reporter and 0.5 μg pCMX-TR4, with increasing amounts of pCMV-AR (0.5, 2.5, and 5 μg) by modified calcium phosphate precipitation method. The relative reporter gene activities were compared to the CAT activities (or luciferase activities) with vector alone. To normalize the transfection efficiency, the β-galactosidase expression vector and pRL-TK were co-transfected in the CAT assay and in the Dual-luciferase reporter assay system (Promega), respectively.

MCF-7-TR4 cells = assay: MCF-7 cells growth assay (cell counting); details: MCF-7-TR4 cells (E2 also in MCF-7-pBIG); 10 nM E2; Dox
Experimental: MCF-7-TR4 and MCF-7-pBIG cells, which were deprived of estrogen by culturing in phenol-free DMEM medium supplement with 10% charcol-stripped FBS for 4 days, were plated at 10^4 cells/well into 24-well plate. […] Cells were trypsinized at the specified time points and counted with a hemocytometer to determine cell density per sample.

MCF7-TR2 cells = assay: Cell cycle profile by flow cytometry, MCF7-TR2 cells; details: 3 days, E2, or E2 with doxycycline-induced TR2
Experimental: (A) Growth assays were performed by MTT method as instructed by manufacturer (Sigma). 5×10^3 MCF7-pBIG and MCF7-TR2 cells were seeded in 24-well plates and incubated in RPMI with 10% CD-FCS for 48 h. […] After 3- and 5-day treatment, cells were harvested for MTT assay. Data represents the relative folds of MTT O.D.570 values at day 5 divided by that at day 3. […] Cells were then trypsinized and fixed overnight in 70% Ethanol. After cells were incubated with 1 mg/ml RNase A (Sigma) and propidium iodide (Roche Molecular Biochemicals), the DNA contents of cells were measured by a flow cytometry. (C) Percentage of growth suppression by TR2. MCF7-TR2 cells were seeded at 5×10^3 cells per well in 24-well plates. […] The treatments were changed every two days. The indices of cell growth were determined by MTT assay. The MTT values from cells without doxycycline were set as 100% in each kind of treatment. Values are represented by the percentage of growth suppression from cells with doxycycline to that without doxycycline.

## AR: androgen receptor, SEQ ID NO:31
TR4; H1299 cells, absence or presence of DHT
  CAT activity induced by pCMXTR4 (DR4-TK-CAT; similar with DR1-CNTFR-I5-LUC): repressed significantly
TR4; HepG2 cells, increasing pCMV-AR
  TR4-induced CpFL(4)-LUC activity (HBV core promoter): significantly decreased
TR4; Table 5
  Activity TR4 (effect of regulator on transcription activity): Down

B1: TR4: human testicular orphan nuclear receptor 4, SEQ ID NO:16; expressed from plasmid or in vitro translated (protein)
chain: MTSPSPRIQIISTDSAVASPQRIQGSEPASGPLSVFTSLNKEKIVTDQQTGQKIQIVTAVDASGSPKQQFILTSPDGAGTGKVILASPETSSAKQLIFTTSDNLVPGRIQIVTDSASVERLLGKTDVQRPQVVEYCVVCGDKASGRHYGAVSCEGCKGFFKRSVRKNLTYSCRSSQDCIINKHHRNRCQFCRLKKCLEMGMKMESVQSERKPFDVQREKPSNCAASTEKIYIRKDLRSPLIATPTFVADKDGARQTGLLDPGMLVNIQQPLIREDGTVLLATDSKAETSQGALGTLANVVTSLANLSESLNNGDTSEIQPEDQSASEITRAFDTLAKALNTTDSSSSPSLADGIDTSGGGSIHVISRDQSTPIIEVEGPLLSDTHVTFKLTMPSPMPEYLNVHYICESASRLLFLSMHRARSIPAFQGLGQDCNTSLVRACWNELFTLGLAQCAQVMSLSTILAAIVNHLQNSIQEDKLSGDRIKQVMEHIWKLQEFCNSMANWDIDGYEYAYLKAIVLFSPDHPGLTSTSQIEKFQEKAQMELQDYVQKTYSEDTYRLARILVRLPALRLMSSNITEELFFTGLIGNVSIDSIIPYILKMETAEYNGQITGVSL
MCF-7-TR4 cells
  Cell growth (cell number): repress

B2: TR2: human testicular orphan nuclear receptor 2, 603 amino acids (protein, UniProt P13056 1-603, looked up)
chain: MATIEEIAHQIIEQQMGEIVTEQQTGQKIQIVTALDHNTQGKQFILTNHDGSTPSKVILARQDSTPGKVFLTTPDAAGVNQLFFTTPDLSAQHLQLLTDNSPDQGPNKVFDLCVVCGDKASGRHYGAVTCEGCKGFFKRSIRKNLVYSCRGSKDCIINKHHRNRCQYCRLQRCIAFGMKQDSVQCERKPIEVSREKSSNCAASTEKIYIRKDLRSPLTATPTFVTDSESTRSTGLLDSGMFMNIHPSGVKTESAVLMTSDKAESCQGDLSTLANVVTSLANLGKTKDLSQNSNEMSMIESLSNDDTSLCEFQEMQTNGDVSRAFDTLAKALNPGESTACQSSVAGMEGSVHLITGDSSINYTEKEGPLLSDSHVAFRLTMPSPMPEYLNVHYIGESASRLLFLSMHWALSIPSFQALGQENSISLVKAYWNELFTLGLAQCWQVMNVATILATFVNCLHNSLQQDKMSTERRKLLMEHIFKLQEFCNSMVKLCIDGYEYAYLKAIVLFSPDHPSLENMEQIEKFQEKAYVEFQDYITKTYPDDTYRLSRLLLRLPALRLMNATITEELFFKGLIGNIRIDSVIPHILKMEPADYNSQIIGHSI
modifications: full-length
notes: human testicular orphan nuclear receptor 2, 603 amino acids
MCF7-TR2 cells
  Cells in G1: 58.1%
  Cells in S: 14.5%
